In US20240228592A1 (BIO THERA SOLUTIONS, published 2024):

Target: T1, spike-RBD-mFC (sino biologicals) (SARS-COV-2, UniProt P0DTC2 319-541)
T1 construct: domain: RBD; also called spike protein in SARS-COV-2
Experiment: ELISA, spike-RBD-mFC coated, anti-human kappa light chain-peroxidase detection

B1: antibody 9 (antibody, V domains shown)
VH: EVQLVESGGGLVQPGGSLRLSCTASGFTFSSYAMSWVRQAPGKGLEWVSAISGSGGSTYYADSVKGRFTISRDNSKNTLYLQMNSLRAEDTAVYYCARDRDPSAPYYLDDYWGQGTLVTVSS
VL: DIQMTQSPSSLSASVGDRVTITCRASQGISSYLAWYQQKPGKAPKLLIYAASSLQSGVPSRFSGSGSGTDFTLTISSLQPEDFATYYCQQHYTTPPTFGQGTKVEIKR
  EC50: 2.76 nM
